The target of the assay is mouse VEGF-A (mouse) (UniProt Q00731). The assay is described as follows: cell-based or functional assay.
Chain of mouse VEGF-A (mouse) (Q00731 other isoform, or with tags, fused parts or gaps limits assumed): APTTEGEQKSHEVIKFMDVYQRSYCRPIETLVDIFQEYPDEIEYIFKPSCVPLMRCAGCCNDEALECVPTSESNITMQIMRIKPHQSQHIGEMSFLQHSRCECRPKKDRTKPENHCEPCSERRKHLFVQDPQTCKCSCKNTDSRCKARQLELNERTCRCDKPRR

As for Bevacizumab (BV) (antibody), the BRME proliferation (Alamar blue) is greater than 1500 nM.

These data come from patent publication US20110159009A1.
